# Assay results as given in article PMC4585734, “RBM45 homo-oligomerization mediates association with ALS-linked proteins and stress granules” (Scientific Reports, 2015).
# Numbering of substitutions follows the chain as printed. “And” between values parts separate entries of the source, which are not always exact repeats. Equal values may be shown once.
# B1: FLAG-tagged RBM45 (full-length FLAG-RBM45) (natural protein, human, UniProt Q8IUH3-3 1-474, looked up)
# chain: MDEAGSSASGGGFRPGVDSLDEPPNSRIFLVISKYTPESVLRERFSPFGDIQDIWVVRDKHTKESKGIAFVKFARSSQACRAMEEMHGQCLGPNDTKPIKVFIAQSRSSGSHRDVEDEELTRIFVMIPKSYTEEDLREKFKVYGDIEYCSIIKNKVTGESKGLGYVRYLKPSQAAQAIENCDRSFRAILAEPKNKASESSEQDYYSNMRQEALGHEPRVNMFPFEQQSEFSSFDKNDSRGQEAISKRLSVVSRVPFTEEQLFSIFDIVPGLEYCEVQRDPYSNYGHGVVQYFNVASAIYAKYKLHGFQYPPGNRIGVSFIDDGSNATDLLRKMATQMVAAQLASMVWNNPSQQQFMQFGGSSGSQLPQIQTDVVLPSCKKKAPAETPVKERLFIVFNPHPLPLDVLEDIFCRFGNLIEVYLVSGKNVGYAKYADRISANDAIATLHGKILNGVRLKVMLADSPREESNKRQRTY
# notes: pcDNA3; band of 56.6 kD; also called 3xFLAG-RBM45; FLAG-RMB45; source: HEK293, transfected or stably expressing, in lysate or in cells; not shown: 3xFLAG, N-terminal, kept
# B2: truncated HA-RBM45 variant (107–474) that lacks RRM1 (domain or fragment, human, UniProt Q8IUH3-3 107-474, looked up)
# chain: RSSGSHRDVEDEELTRIFVMIPKSYTEEDLREKFKVYGDIEYCSIIKNKVTGESKGLGYVRYLKPSQAAQAIENCDRSFRAILAEPKNKASESSEQDYYSNMRQEALGHEPRVNMFPFEQQSEFSSFDKNDSRGQEAISKRLSVVSRVPFTEEQLFSIFDIVPGLEYCEVQRDPYSNYGHGVVQYFNVASAIYAKYKLHGFQYPPGNRIGVSFIDDGSNATDLLRKMATQMVAAQLASMVWNNPSQQQFMQFGGSSGSQLPQIQTDVVLPSCKKKAPAETPVKERLFIVFNPHPLPLDVLEDIFCRFGNLIEVYLVSGKNVGYAKYADRISANDAIATLHGKILNGVRLKVMLADSPREESNKRQRTY
# notes: source: HEK293, transfected, in cells; not shown: 2xHA, N-terminal, kept
# B3: HA-tagged full-length RBM45 (natural protein, human, UniProt Q8IUH3-3 1-474, looked up)
# chain: B1 chain
# notes: pcDNA3; also called HA-RBM45; HA-RBM45 wild-type; source: HEK293, transfected, in lysate or in cells; not shown: 2xHA, N-terminal, kept
# B4: HA-RBM45 NLS M2/3 double mutant (natural protein, human, UniProt Q8IUH3-3 1-474, looked up)
# chain: B1 chain with R454A, K456A, R464A, K469A, R470A, R472A
# notes: also called NLS-M2/3 mutant; HA-RBM45-NLS mutant; source: HEK293, transfected, in lysate or in cells; not shown: 2xHA, N-terminal, kept
# B5: HA-RBM45 deletion construct D2 (Δ230–234) (natural protein, human, UniProt Q8IUH3-3 1-474, looked up)
# chain: MDEAGSSASGGGFRPGVDSLDEPPNSRIFLVISKYTPESVLRERFSPFGDIQDIWVVRDKHTKESKGIAFVKFARSSQACRAMEEMHGQCLGPNDTKPIKVFIAQSRSSGSHRDVEDEELTRIFVMIPKSYTEEDLREKFKVYGDIEYCSIIKNKVTGESKGLGYVRYLKPSQAAQAIENCDRSFRAILAEPKNKASESSEQDYYSNMRQEALGHEPRVNMFPFEQQSEKNDSRGQEAISKRLSVVSRVPFTEEQLFSIFDIVPGLEYCEVQRDPYSNYGHGVVQYFNVASAIYAKYKLHGFQYPPGNRIGVSFIDDGSNATDLLRKMATQMVAAQLASMVWNNPSQQQFMQFGGSSGSQLPQIQTDVVLPSCKKKAPAETPVKERLFIVFNPHPLPLDVLEDIFCRFGNLIEVYLVSGKNVGYAKYADRISANDAIATLHGKILNGVRLKVMLADSPREESNKRQRTY
# notes: source: HEK293, transfected, in lysate or in cells; not shown: 2xHA, N-terminal, kept
# B6: HA-RBM45 deletion construct D1 (Δ212–216) (natural protein, human, UniProt Q8IUH3-3 1-474, looked up)
# chain: MDEAGSSASGGGFRPGVDSLDEPPNSRIFLVISKYTPESVLRERFSPFGDIQDIWVVRDKHTKESKGIAFVKFARSSQACRAMEEMHGQCLGPNDTKPIKVFIAQSRSSGSHRDVEDEELTRIFVMIPKSYTEEDLREKFKVYGDIEYCSIIKNKVTGESKGLGYVRYLKPSQAAQAIENCDRSFRAILAEPKNKASESSEQDYYSNMRQEPRVNMFPFEQQSEFSSFDKNDSRGQEAISKRLSVVSRVPFTEEQLFSIFDIVPGLEYCEVQRDPYSNYGHGVVQYFNVASAIYAKYKLHGFQYPPGNRIGVSFIDDGSNATDLLRKMATQMVAAQLASMVWNNPSQQQFMQFGGSSGSQLPQIQTDVVLPSCKKKAPAETPVKERLFIVFNPHPLPLDVLEDIFCRFGNLIEVYLVSGKNVGYAKYADRISANDAIATLHGKILNGVRLKVMLADSPREESNKRQRTY
# notes: also called HA-RBM45 D1 mutant; source: HEK293, transfected, in lysate or in cells; not shown: 2xHA, N-terminal, kept
# Molecular target: the molecule itself
# Test: cross-linking; in vivo DSS cross-linking of live HEK293 stably expressing FLAG-RBM45, DSS 0 to 5000 uM; denaturing SDS-PAGE and immunoblot
row,Protein,stoichiometry N
1,B1,2 and 5

# Molecular target: the molecule itself
# Test: cross-linking; in vivo DSS cross-linking (1 mM DSS for 10 minutes, room temperature, PBS) of HEK293 expressing HA-RBM45 constructs; SDS-PAGE and immunoblot
row,Protein,stoichiometry N
1,B2,5
2,B3,5 and 10
3,B4,5
4,B5,5
5,B6,5
